The target of this data set is Haemoglobin (Hb) (UniProt P69905;P68871 2-142;2-147). The experiment in a line: differential pulse voltammetry (electrochemical aptasensor); aptamer immobilized on electrode; DPV in 10 mM Tris-HCl (stated for clinical-range test; pH and temperature not given); EIS in 5 mM [Fe(CN)6]3-/4-, 0.1 M KCl; aptamer loaded in 5 mM MgCl2, 10 mM Tris-HCl, electrodes rinsed with 0.1 M PBS pH 6.5, 1 mM MgCl2. The note with it: protein: commercial; chain copies: 2;2; label: 5' ferrocene; single strand, Mfold-predicted secondary structure.
Sequence of Haemoglobin (Hb) (P69905 2-142, chain 1 of 2): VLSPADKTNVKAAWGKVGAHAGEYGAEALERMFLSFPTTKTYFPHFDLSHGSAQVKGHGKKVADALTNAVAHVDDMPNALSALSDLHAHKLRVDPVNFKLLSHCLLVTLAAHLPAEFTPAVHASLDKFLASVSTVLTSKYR
Sequence of Haemoglobin (Hb) (P68871 2-147, chain 2 of 2): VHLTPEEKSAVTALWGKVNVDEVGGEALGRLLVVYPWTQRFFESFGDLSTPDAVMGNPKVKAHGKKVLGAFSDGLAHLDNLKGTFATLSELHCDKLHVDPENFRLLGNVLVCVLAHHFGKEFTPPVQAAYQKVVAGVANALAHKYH

B1: Hb aptamer (II) (ssDNA)
DNA: ACGCACACCAGAGACAAGTAGCCCCCCAAACGCGGCCACGGAACGCAGCACCTCCATGGC
modifications: 5' ferrocene; 3' thiol (SH), immobilized on gold screen-printed electrode
On to B1, for which the Kd was 95.9 ± 40 µg/mL.

Source of the values: PMC8659020, “Ferrocene-Labelled Electroactive Aptamer-Based Sensors (Aptasensors) for Glycated Haemoglobin”.
